In the supplement of paper PMC10567573:
± gives the standard deviation.

Test: protein stability index of a GFP-peptide fusion (GPS, HEK-293T) (PSI 1-6); higher = more stable
[1] = treatment: DMSO, c terminus: a fixed tail appended
[2] = treatment: MLN4924 1 uM, 8 h, c terminus: a fixed tail appended
[3] = treatment: DMSO, c terminus: native
[4] = treatment: MLN4924 1 uM, 8 h, c terminus: native
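Note: 24-mer peptide tiles fused after GFP, lentivirally expressed, FACS-sorted into six equal bins by GFP/DsRed ratio, decoded by Illumina sequencing, PSI is the read-weighted mean bin number.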

KQRGYFFLDERLYCESHAKARVKP [PDLIM4] gave a protein stability index [1] of 2.81 ± 0.64 and a protein stability index [2] of 3.11 ± 0.38.
With VYKDGEHGEEQRITIEPGTSYRLQ [PTPRD] the protein stability index [1] was 4.81 ± 0.15 and the protein stability index [2] was 5.03 ± 0.16.
NERKVAQLAEENERLKQEIERLTR [DDIT3] gave a protein stability index [1] of 5.1 ± 0.37 and a protein stability index [2] of 5.18 ± 0.3.
With GLGLPMSRSQNTDMVQKSVSKTLP [CLINT1] the protein stability index [1] was 4.33 ± 0.23 and the protein stability index [2] was 4.44 ± 0.099.
Work on KGGVQNFNKDLVQDCGFEHLVPVI [CEP70] yielded a protein stability index [1] of 2.53 ± 0.13 and a protein stability index [2] of 3.18 ± 0.46.
For SSIPCSGSLDGRELSRQVRSSVEL [PPEF2], the protein stability index [1] was 4.298 ± 0.036 and the protein stability index [2] was 4.17 ± 0.13.
Work on FSFRYQQELEEEIKELYENFCKHN [ATL3] yielded a protein stability index [1] of 2.57 ± 0.38 and a protein stability index [2] of 2.86 ± 0.44.
For QKLREESAARVVLTSLLACLPAGP [DUSP5], the protein stability index [1] was 2.15 ± 0.26 and the protein stability index [2] was 2.06 ± 0.13.
EEAKGALLGTSGLKRRFSRLENRY [DAPK3] showed a protein stability index [1] of 3.8 ± 0.29 and a protein stability index [2] of 3.96 ± 0.51.
For VFVCRVSAVLFYVNMYVSIVFFGL [P2RY14], the protein stability index [1] was 3.36 ± 0.33 and the protein stability index [2] was 3.35 ± 0.54.
Work on QLVEMTGLSPRVIRVWFQNKRCKD [ISL2] yielded a protein stability index [1] of 2.47 ± 0.4 and a protein stability index [2] of 2.95 ± 0.43.
GGGGGGGGTSSNNSEEEEDDDDEE [ANKRD17] showed a protein stability index [1] of 5.68 ± 0.21 and a protein stability index [2] of 5.55 ± 0.34.
With FYRSTAPSEDIWKKFELVPSPPTS [MYCL] the protein stability index [1] was 2.67 ± 0.15 and the protein stability index [2] was 2.76 ± 0.32.
WCLHVNNWLQVSFTAKHANKVKVL [FSD1] gave a protein stability index [1] of 3.04 ± 0.73 and a protein stability index [2] of 2.93 ± 0.5.
In the case of TPLLNGSSQDRMFETMAIEIEQLL [GOSR1], the protein stability index [1] is reported as 3.06 ± 0.27 and the protein stability index [2] is reported as 3.28 ± 0.23.
Work on EHCGAVCFVKDNPQKSYFIRLYGL [WAS] yielded a protein stability index [1] of 2.32 ± 0.35 and a protein stability index [2] of 2.31 ± 0.64.
With QSAYDVADMLKQYFRDLPEPLMTN [DLC1] the protein stability index [1] was 2.67 ± 0.32 and the protein stability index [2] was 2.72 ± 0.33.
Sequence NRILAERIAKEIQVIPLQRDDED [IMPA1] has a protein stability index [3] of 3.47 ± 0.1 and a protein stability index [4] of 3.65 ± 0.12.
LRVEQKDFPAHRIVLAACSDYFCA [KLHL12] showed a protein stability index [1] of 2 ± 0.44 and a protein stability index [2] of 2.07 ± 0.29.
QGDSADETTAHKTEEENSDSDSD [CMTM3] gave a protein stability index [3] of 5.6 ± 0.2 and a protein stability index [4] of 5.7 ± 0.23.
In the case of ISCFNNAPPAKLACPVCSKMVPRY [FAN1], the protein stability index [1] is reported as 2.24 ± 0.19 and the protein stability index [2] is reported as 2.67 ± 0.26.
SQLAGQVNVEMDAAPGVDLTRVLA [KRT15] showed a protein stability index [1] of 4 ± 0.18 and a protein stability index [2] of 3.94 ± 0.057.
QINDGMGGDGDDMEIFMEEMREIR [BEX3] gave a protein stability index [1] of 4.81 ± 0.17 and a protein stability index [2] of 4.75 ± 0.28.
For YFLRGSLPWQGLKADTLKERYQKI [CSNK1G3], the protein stability index [1] was 2.17 ± 0.14 and the protein stability index [2] was 2.14 ± 0.39.
In the case of EGENYQKGERGEDSSEEKHLEEPG [CHGB], the protein stability index [1] is reported as 5.63 ± 0.39 and the protein stability index [2] is reported as 5.57 ± 0.32.
MDDERYFNEMSAQGLRPRTVSSPI [CCDC6] showed a protein stability index [1] of 4.28 ± 0.29 and a protein stability index [2] of 4.16 ± 0.14.
For IVLGPYHVKFRSLSMVSECLFSLI [MCOLN1], the protein stability index [1] was 2.94 ± 0.68 and the protein stability index [2] was 2.78 ± 0.42.
Work on MLKEEHQIILENQKNFGLYVQEKR [RAD54B] yielded a protein stability index [1] of 2.99 ± 0.24 and a protein stability index [2] of 3.62 ± 0.29.
Work on VVFPYTSKSCMRAVLEYLYTGMFT [RHOBTB2] yielded a protein stability index [1] of 2.81 ± 0.42 and a protein stability index [2] of 2.77 ± 1.1.
For AQAQALAAQAAAAAHAAQAHRERN [PI4K2A], the protein stability index [1] was 4.9 ± 0.076 and the protein stability index [2] was 4.8 ± 0.12.
Work on GQFYLDLYPREGKYNHAACFGLQP [NLN] yielded a protein stability index [1] of 1.91 ± 0.16 and a protein stability index [2] of 2.09 ± 0.31.
Work on QVLDEVIPIHGKGNFPTMEVKPKD [TENT5D] yielded a protein stability index [1] of 4.61 ± 0.18 and a protein stability index [2] of 4.6 ± 0.24.
In the case of QLAQLRCEMEQQSQEYQILLDVKT [KRT16], the protein stability index [1] is reported as 3.34 ± 0.076 and the protein stability index [2] is reported as 3.55 ± 0.28.
For SKQTEKDPGVQELEALIDTIQKQL [EFHC1], the protein stability index [1] was 3.83 ± 0.28 and the protein stability index [2] was 3.86 ± 0.3.
For QDDSKPTQRQFTILNFNDLMSSAV [AASDHPPT], the protein stability index [1] was 2.86 ± 0.31 and the protein stability index [2] was 2.97 ± 0.28.
With KLKVQALKDRGLSIPRADTLDEY [LSM1] the protein stability index [3] was 4.01 ± 0.2 and the protein stability index [4] was 4.04 ± 0.33.
GYSDRDGYGRDRDYSDHPSGGSYR [RBMX] gave a protein stability index [1] of 4.6 ± 0.31 and a protein stability index [2] of 4.81 ± 0.45.
Work on TDLIWKNQNSWGTGEDVKVILKNS [LMNB1] yielded a protein stability index [1] of 3.47 ± 0.44 and a protein stability index [2] of 3.74 ± 0.26.
For LNLDIGQVYKETRLFLDGEEEKEW [AASDHPPT], the protein stability index [1] was 3.95 ± 0.43 and the protein stability index [2] was 4.09 ± 0.44.
In the case of RPGATAVPTPLTNVQILLPVGEPV [FCHO1], the protein stability index [1] is reported as 3.4 ± 0.26 and the protein stability index [2] is reported as 3.33 ± 0.2.
KGLSVEFALLADKAAQQGKQEEND [SNX8] gave a protein stability index [1] of 5.237 ± 0.033 and a protein stability index [2] of 5.13 ± 0.21.
RLAELLLLETDAGPAASEGAEQPP [GADD45A] showed a protein stability index [1] of 3.26 ± 0.22 and a protein stability index [2] of 3.6 ± 0.56.
In the case of GKQPVSLPARRLKLRGRKRRQRG [CPXM2], the protein stability index [4] is reported as 3.59 ± 0.25.
MECPEGQLPISSENDSTPTVSTSE [TAF7L] gave a protein stability index [1] of 5.46 ± 0.12 and a protein stability index [2] of 5.59 ± 0.25.
In the case of QLSPNLDLDPLELIALANRFCLPH [RHOBTB1], the protein stability index [1] is reported as 2.27 ± 0.11 and the protein stability index [2] is reported as 2.44 ± 0.11.
Work on QERSRVLNQVADLLEQSLEEFAQA [ALDH8A1] yielded a protein stability index [1] of 3.94 ± 0.28 and a protein stability index [2] of 4.26 ± 0.19.
In the case of YRAITSAYYRGAVGALLVYDIAKH [RAB11A], the protein stability index [1] is reported as 2.43 ± 0.51 and the protein stability index [2] is reported as 2.16 ± 0.33.
Work on EQCIKLWLHALHLRQKGNRNTHKD [FEM1B] yielded a protein stability index [1] of 2.39 ± 0.21 and a protein stability index [2] of 2.59 ± 0.39.
With HRRDGKWQNVHFHCSGAPVAPLQ [CAMK2B] the protein stability index [3] was 2.39 ± 0.31 and the protein stability index [4] was 2.6 ± 0.34.
KKSNSPGTASSGSSRLPQPSGAGK [ZC2HC1A] gave a protein stability index [1] of 5.25 ± 0.19 and a protein stability index [2] of 5.23 ± 0.14.
Work on PLGAGNLGPELIKESNANPIFMRK [DPCD] yielded a protein stability index [1] of 4.34 ± 0.27 and a protein stability index [2] of 4.54 ± 0.23.
For KSGEGFIDFIGQVHKTKEQFGQDG [PTPRD], the protein stability index [1] was 4.24 ± 0.49 and the protein stability index [2] was 4.23 ± 0.17.
Sequence QVQQVEVEATVKPELTAALRDIRA [PRPH] has a protein stability index [1] of 4.02 ± 0.31 and a protein stability index [2] of 4.32 ± 0.18.
With RPPFETTNLKETYRCIREARYTMP [PLK2] the protein stability index [1] was 2.72 ± 0.47 and the protein stability index [2] was 2.31 ± 0.26.
ADFSSMLSEEEKEELKAELVQLED [TPD52L1] gave a protein stability index [1] of 5.47 ± 0.32 and a protein stability index [2] of 5.3 ± 0.37.
With RLVNEYVELVNAACNFEPHESFFS [ZER1] the protein stability index [1] was 2.34 ± 0.4 and the protein stability index [2] was 2.1 ± 0.48.
Work on EYLIRLFQEWEAHRNLSQLPNFAF [TCF25] yielded a protein stability index [1] of 2.32 ± 0.7 and a protein stability index [2] of 2.39 ± 0.24.
CPTFRVSIARLEMGPDEYEEMEEE [FBXO3] gave a protein stability index [1] of 4.7 ± 0.18 and a protein stability index [2] of 5.07 ± 0.21.
Sequence HEVKDNYIPVIKRALNSVPVIIAA [RHOBTB3] has a protein stability index [1] of 2.34 ± 0.34 and a protein stability index [2] of 2.18 ± 0.17.
With FSQYGRIITSRILVDQVTGVSRGV [ELAVL3] the protein stability index [1] was 2.23 ± 0.26 and the protein stability index [2] was 2.33 ± 0.23.
With NGQLMAVGGFDGTTYLKTIEVFDP [KLHL20] the protein stability index [1] was 2.93 ± 0.072 and the protein stability index [2] was 2.91 ± 0.45.
Work on NIWVCYASYVVFRIIYMLLITIAT [SLC19A2] yielded a protein stability index [1] of 3.41 ± 0.35 and a protein stability index [2] of 3.14 ± 0.88.
For SLVAPLLLELAGEVTDTGDPIVRP [MYORG], the protein stability index [1] was 3.23 ± 0.33 and the protein stability index [2] was 3.3 ± 0.23.
In the case of VQYLGQAPELLGGAEPGTYLTGTI [ADAMTS4], the protein stability index [1] is reported as 2.33 ± 0.7 and the protein stability index [2] is reported as 2.98 ± 0.72.
With LSHLLGDAGSPYLIGLISDRLRRN [SPNS1] the protein stability index [1] was 2.18 ± 0.36 and the protein stability index [2] was 2.16 ± 0.39.
